Reference: patent US20100317566A1 (MOREHOUSE SCHOOL OF MEDICINE, published 2010)

Assays:
Assay in all cases: FLAG-peptide resin pulldown from Jurkat lysate, SDS-PAGE, mass spectrometry
Mortalin/GRP75 = target: T1, Mortalin/GRP75 (UniProt P38646 47-679)
T1 construct: Endogenous protein pulled down from Jurkat cell lysate, identified by mass spectrometry and by Western blot (~75 kDa); also called glucose-regulated protein 75

HSC70 = target: T2, HSC70 (UniProt P11142 2-646)
T2 construct: Endogenous protein pulled down from Jurkat cell lysate, identified by mass spectrometry

Vimentin = target: T3, Vimentin (UniProt P08670 2-466)
T3 construct: Endogenous protein pulled down from Jurkat cell lysate, identified by mass spectrometry

GRP78 = target: T4, GRP78 (UniProt P11021 19-654)
T4 construct: Endogenous protein pulled down from Jurkat cell lysate, identified by mass spectrometry

Measured: binding result

T2 sequence (P11142 2-646 limits assumed): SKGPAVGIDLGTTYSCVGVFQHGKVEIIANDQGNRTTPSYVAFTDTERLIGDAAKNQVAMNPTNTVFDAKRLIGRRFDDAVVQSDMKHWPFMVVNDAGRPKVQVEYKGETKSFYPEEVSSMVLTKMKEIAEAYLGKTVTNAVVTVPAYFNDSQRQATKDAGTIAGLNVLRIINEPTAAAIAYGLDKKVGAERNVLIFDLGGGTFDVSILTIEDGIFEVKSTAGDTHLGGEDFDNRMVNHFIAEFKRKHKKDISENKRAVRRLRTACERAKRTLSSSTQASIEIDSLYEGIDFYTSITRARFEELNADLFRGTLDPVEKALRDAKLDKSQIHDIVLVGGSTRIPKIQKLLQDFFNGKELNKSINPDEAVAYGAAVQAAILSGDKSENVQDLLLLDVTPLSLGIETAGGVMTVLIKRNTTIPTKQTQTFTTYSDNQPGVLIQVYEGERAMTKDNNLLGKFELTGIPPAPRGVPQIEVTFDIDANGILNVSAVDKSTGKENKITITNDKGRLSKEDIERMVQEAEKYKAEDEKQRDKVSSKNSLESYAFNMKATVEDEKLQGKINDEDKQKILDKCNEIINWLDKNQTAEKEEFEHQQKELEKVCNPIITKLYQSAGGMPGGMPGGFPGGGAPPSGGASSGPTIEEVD
T4 sequence (P11021 19-654 limits assumed): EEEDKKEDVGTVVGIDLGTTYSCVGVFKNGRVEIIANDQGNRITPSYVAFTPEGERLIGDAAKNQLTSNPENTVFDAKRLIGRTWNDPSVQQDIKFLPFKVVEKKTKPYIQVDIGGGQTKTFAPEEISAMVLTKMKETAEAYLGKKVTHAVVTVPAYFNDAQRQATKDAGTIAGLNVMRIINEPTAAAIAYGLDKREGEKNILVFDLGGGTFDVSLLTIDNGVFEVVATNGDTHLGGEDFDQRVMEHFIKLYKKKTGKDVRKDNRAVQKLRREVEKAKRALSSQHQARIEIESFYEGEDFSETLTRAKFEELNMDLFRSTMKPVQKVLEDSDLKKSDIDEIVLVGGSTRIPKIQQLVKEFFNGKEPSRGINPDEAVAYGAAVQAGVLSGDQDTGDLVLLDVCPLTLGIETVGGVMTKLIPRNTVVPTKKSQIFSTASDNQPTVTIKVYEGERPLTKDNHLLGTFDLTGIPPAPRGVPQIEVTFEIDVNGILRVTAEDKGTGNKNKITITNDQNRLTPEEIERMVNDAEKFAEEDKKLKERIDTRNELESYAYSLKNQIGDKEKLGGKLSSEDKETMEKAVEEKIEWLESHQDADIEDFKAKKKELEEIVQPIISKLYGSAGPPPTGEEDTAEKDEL
T3 sequence (P08670 2-466 limits assumed): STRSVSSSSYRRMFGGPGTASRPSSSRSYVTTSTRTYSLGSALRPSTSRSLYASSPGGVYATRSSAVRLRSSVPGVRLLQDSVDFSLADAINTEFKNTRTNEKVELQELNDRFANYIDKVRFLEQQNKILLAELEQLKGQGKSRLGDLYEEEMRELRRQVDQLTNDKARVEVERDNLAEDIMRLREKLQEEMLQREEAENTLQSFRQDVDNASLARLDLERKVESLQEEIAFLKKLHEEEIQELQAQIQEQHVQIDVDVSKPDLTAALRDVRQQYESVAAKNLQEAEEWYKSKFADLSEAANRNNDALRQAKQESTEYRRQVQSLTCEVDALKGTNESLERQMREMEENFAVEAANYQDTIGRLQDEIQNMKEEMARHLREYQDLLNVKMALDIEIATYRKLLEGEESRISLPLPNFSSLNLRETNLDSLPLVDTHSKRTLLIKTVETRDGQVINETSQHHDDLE
T1 sequence (P38646 47-679 limits assumed): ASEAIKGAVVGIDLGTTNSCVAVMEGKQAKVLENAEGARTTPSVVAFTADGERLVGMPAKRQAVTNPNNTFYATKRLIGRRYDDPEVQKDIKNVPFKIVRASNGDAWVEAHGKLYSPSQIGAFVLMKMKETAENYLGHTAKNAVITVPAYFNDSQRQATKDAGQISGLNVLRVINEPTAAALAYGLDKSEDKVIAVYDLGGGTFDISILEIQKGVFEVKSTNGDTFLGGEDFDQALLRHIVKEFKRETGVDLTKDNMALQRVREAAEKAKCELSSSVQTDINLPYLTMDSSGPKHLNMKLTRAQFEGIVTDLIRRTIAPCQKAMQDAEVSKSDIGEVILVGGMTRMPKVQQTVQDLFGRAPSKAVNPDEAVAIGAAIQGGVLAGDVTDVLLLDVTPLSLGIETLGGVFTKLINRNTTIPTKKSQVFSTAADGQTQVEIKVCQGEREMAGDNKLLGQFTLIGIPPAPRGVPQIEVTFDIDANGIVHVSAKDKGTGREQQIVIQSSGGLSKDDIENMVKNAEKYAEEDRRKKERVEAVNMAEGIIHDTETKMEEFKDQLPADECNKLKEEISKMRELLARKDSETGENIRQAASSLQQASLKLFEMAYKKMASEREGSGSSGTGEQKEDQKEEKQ

B1: HIV-1 NefSMRmt peptide (H2N-AGFPVAAAGFPVDYKDDDDK-OH) (peptide)
peptide: H-AGFPVAAAGFPVDYKDDDDK-OH
notes: Made commercially; also called SMRmut; HIV-1 NefSMRmut
no binding: all assays above
